The results in this text go back to publication PMC4507011.

In assay [1] the target is dehydrogenase domain (DH) of MtCDH variant M309R (Myriococcum thermophilum).
Assay [2] concerns the target dehydrogenase domain (DH) of MtCDH variant N292S (Myriococcum thermophilum).
Assay [3] deals with dehydrogenase domain (DH) of MtCDH variant S298Q (Myriococcum thermophilum).
For assay [4], the target named is dehydrogenase domain (DH) of MtCDH variant Y549F (Myriococcum thermophilum).
The target in assay [5] is dehydrogenase domain (DH) of MtCDH variant N700S (Myriococcum thermophilum).
Assay [6] has as its target dehydrogenase domain (DH) of MtCDH variant M309A (Myriococcum thermophilum).
Assay [7] deals with dehydrogenase domain (DH) of MtCDH variant R698S (Myriococcum thermophilum).
Assay [8] addresses dehydrogenase domain (DH) of MtCDH variant Y619Q (Myriococcum thermophilum).
Assay [9] deals with dehydrogenase domain (DH) of MtCDH variant W295A (Myriococcum thermophilum).
Assay [10] addresses dehydrogenase domain (DH) of Myriococcum thermophilum cellobiose dehydrogenase, wild type (Myriococcum thermophilum).
Assay [11] addresses T1, Neurospora crassa lytic polysaccharide monooxygenase NcLPMO9F (Neurospora crassa) (UniProt Q1K4Q1).
T1 sequence (chain, non-glycosylated; N-terminal histidine not methylated): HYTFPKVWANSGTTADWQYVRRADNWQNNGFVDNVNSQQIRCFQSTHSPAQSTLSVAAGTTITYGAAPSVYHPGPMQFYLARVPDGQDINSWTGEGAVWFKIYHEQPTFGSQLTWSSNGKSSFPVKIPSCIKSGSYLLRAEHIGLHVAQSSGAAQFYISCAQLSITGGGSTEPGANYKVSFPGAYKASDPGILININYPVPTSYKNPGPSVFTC

The target of assay [12] is T1, Neurospora crassa lytic polysaccharide monooxygenase NcLPMO9F (Neurospora crassa). The source holds these as a separate data set.

As to “cytochrome domain (CYT) of Myriococcum thermophilum cellobiose dehydrogenase (domain or fragment)”, in assay [1], the haem b reduction rate kobs (interdomain electron transfer) of 5 μM full-length MtCDH M309R with 25 mM cellobiose, stopped flow at 563 nm, 30 °C, pH 5.0 was determined as 0.088 s⁻¹. In assay [2], this molecule had a haem b reduction rate kobs (interdomain electron transfer) of 5 μM full-length MtCDH N292S with 25 mM cellobiose, stopped flow at 563 nm, 30 °C, pH 5.0 of 0.95 s⁻¹. Further, in assay [3], the haem b reduction rate kobs (interdomain electron transfer) of 5 μM full-length MtCDH S298Q with 25 mM cellobiose, stopped flow at 563 nm, 30 °C, pH 5.0 was determined as 0.09 s⁻¹. In assay [4], this molecule had a haem b reduction rate kobs (interdomain electron transfer) of 5 μM full-length MtCDH Y549F with 25 mM cellobiose, stopped flow at 563 nm, 30 °C, pH 5.0 of 0.76 s⁻¹. Besides, in [5], the haem b reduction rate kobs (interdomain electron transfer) of 5 μM full-length MtCDH N700S with 25 mM cellobiose, stopped flow at 563 nm, 30 °C, pH 5.0 was determined as 1.37 s⁻¹. In addition, the haem b reduction rate kobs (interdomain electron transfer) of 5 μM full-length MtCDH M309A with 25 mM cellobiose, stopped flow at 563 nm, 30 °C, pH 5.0 in [6] stood at 0.056 s⁻¹. The haem b reduction rate kobs (interdomain electron transfer) of 5 μM full-length MtCDH R698S with 25 mM cellobiose, stopped flow at 563 nm, 30 °C, pH 5.0 in assay [7] was found to be 0.011 s⁻¹. The molecule further registered a haem b reduction rate kobs (interdomain electron transfer) of 5 μM full-length MtCDH Y619Q with 25 mM cellobiose, stopped flow at 563 nm, 30 °C, pH 5.0 in assay [8] of 0.38 s⁻¹. For the same molecule, in assay [9], the haem b reduction rate kobs (interdomain electron transfer) of 5 μM full-length MtCDH W295A with 25 mM cellobiose, stopped flow at 563 nm, 30 °C, pH 5.0 was determined as 0.86 s⁻¹. This molecule yielded a haem b reduction rate kobs (flavin-to-haem interdomain electron transfer) of 5 μM full-length MtCDH wild type with 25 mM cellobiose, stopped flow at 563 nm, 30 °C, 50 mM sodium citrate pH 5.0 in [10] of 0.76 s⁻¹.

B1: cytochrome domain of Neurospora crassa cellobiose dehydrogenase IIA (separate fragment) (domain or fragment)
chain: QTAPKTFTHPDTGIVFNTWSASDSQTKGGFTVGMALPSNALTTDATEFIGYLECSSAKNGANSGWCGVSLRGAMTNNLLITAWPSDGEVYTNLMFATGYAMPKNYAGDAKITQIASSVNATHFTLVFRCQNCLSWDQDGVTGGISTSNKGAQLGWVQAFPSPGNPTCPTQITLSQHDNGMGQWGAAFDSNIANPSYTAWAAKATKTVTGTCSGPVTTSIAATPVPTGVSFDYIVVGGGAGGIPVADKLSESGKSVLLIEKGFASTGEHGGTLKPEWLNNTSLTRFDVPGLCNQIWKDSDGIACSDTDQMAGCVLGGGTAINAGLWYKPYTKDWDYLFPSGWKGSDIAGATSRALSRIPGTTTPSQDGKRYLQQGFEVLANGLKASGWKEVDSLKDSEQKNRTFSHTSYMYINGERGGPLATYLVSAKKRSNFKLWLNTAVKRVIREGGHITGVEVEAFRNGGYSGIIPVTNTTGRVVLSAGTFGSAKILLRSGIGPKDQLEVVKASADGPTMVSNSSWIDLPVGHNLVDHTNTDTVIQHNNVTFYDFYKAWDNPNTTDMNLYLNGRSGIFAQAAPNIGPLFWEEITGADGIVRQLHWTARVEGSFETPDGYAMTMSQYLGRGATSRGRMTLSPTLNTVVSDLPYLKDPNDKAAVVQGIVNLQKALANVKGLTWAYPSANQTAADFVDKQPVTYQSRRSNHWMGTNKMGTDDGRSGGTAVVDTNTRVYGTDNLYVVDASIFPGVPTTNPTAYIVVAAEHAAAKILAQPANEAVPKWGWCGGPTYTGSQTCQAPYKCEKQNDWYWQCV
Molecule B1 showed a haem b re-oxidation rate (kobs) of reduced NcCYT (4 μM) mixed with NcLPMO9F (20 μM), stopped flow at 563 nm, 30 °C, 50 mM sodium citrate pH 5.0 (re-oxidation by oxygen alone 0.0007 s^−1) in [11] of 67.2 s⁻¹.

B2: dehydrogenase domain of Neurospora crassa cellobiose dehydrogenase IIA (separate fragment) (domain or fragment)
chain: B1 chain
Turning to B2, the re-oxidation rate of the FAD cofactor of NcDH (10 μM) in the presence of 50 μM NcLPMO9F, stopped flow at 450 nm (0.0444 s^–1 without LPMO): unchanged, no electron transfer in assay [12] amounted to 0.0442 s⁻¹.
